This is an account of results in patent US20160340421A1 (Regeneron, published 2016).

By Kd is commonly meant the free concentration of one partner at which half of the binding sites on the other are occupied at equilibrium, for simple one-to-one binding. Higher therefore signals a looser complex.

The target in experiment [1] is T1, Human GDF8 homodimer (mature human Growth and Differentiation Factor-8) (human, UniProt O14793 267-375).
T1 sequence: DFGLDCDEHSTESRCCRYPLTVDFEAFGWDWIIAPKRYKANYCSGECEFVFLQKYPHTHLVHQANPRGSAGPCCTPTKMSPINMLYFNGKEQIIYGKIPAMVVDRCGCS
Description: cell-based or functional assay.

The target of experiment [2] is T1, Human GDF8 homodimer (mature human …). In words: SPR Biacore 3000, buffer without BSA. In general terms: In SPR one partner is held on a chip, and binding of the other changes the refractive index at the surface.
Experiment [3] addresses T2, GDF8/TGFβ[48-72] chimera (T48): GDF8.1-47.TGFβ1.49-76.GDF8.73-109 (human GDF8 with human TGFβ-1 sequence).
T2 construct: used as CHO conditioned medium / supernatant; also called GDF8/TGFβ-1 chimeric construct
T2 chain: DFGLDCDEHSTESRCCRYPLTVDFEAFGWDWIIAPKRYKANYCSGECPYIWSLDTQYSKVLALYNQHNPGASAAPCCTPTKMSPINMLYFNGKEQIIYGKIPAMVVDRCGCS
Description: Western blot of CHO.hFurin supernatant. On the procedure: (§1) The various chimeric GDF8 pro-proteins were transiently transfected in an engineered stable CHO.hFurin cell line. A similar Western Blot analysis as described above was used to detect the binding of various anti-hGDF8 antibodies to each of the chimeric GDF8. Briefly, […] of CHO supernatant were loaded onto each lane of an SDS-PAGE (non-reducing or reducing) gel and electroblotted onto a PVDF membrane. The membrane was then incubated with an anti-GDF8 antibody at 2 μg/ml followed by exposure to the appropriate secondary antibody conjugated to HRP.

The target in experiment [4] is T3, B48 chimera: GDF8.1-47.BMP2.48-77.GDF8.73-109.
T3 construct: CHO.hFurin supernatant
T3 chain: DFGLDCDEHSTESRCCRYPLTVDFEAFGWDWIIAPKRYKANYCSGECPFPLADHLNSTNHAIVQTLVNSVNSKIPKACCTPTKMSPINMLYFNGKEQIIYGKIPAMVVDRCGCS
In words: Western blot of CHO.hFurin supernatant. How it is done:
as §1
On the technique in general: In western blotting, separated proteins are transferred to a membrane and probed.

Experiment [5] addresses T1, Human GDF8 homodimer (mature human …). Description: SPR, antibody captured, buffer without BSA. On the procedure: (§2) Equilibrium dissociation constants (KD values) for antigen binding to selected antibodies were determined by surface kinetics using a real-time biosensor surface plasmon resonance assay (BIACORE™ 2000). Each selected antibody was captured on either a goat anti-mouse IgG polyclonal antibody surface or a goat anti-hFc polyclonal antibody (Jackson Immuno Research Lab) surface created through direct chemical coupling to a BIACORE™ chip to form a captured antibody surface. Human GDF8 homodimer, hGDF11 homodimer, or hGDF5 homodimer at 25 nM was injected over the captured antibody surfaces, and antigen-antibody binding and dissociation were monitored in real time at room temperature. Kinetic analysis was performed to calculate KD, dissociation rate constants (kd), association rate constants (ka) and half-life of antigen/antibody complex dissociation (Table 2).

For experiment [6] the target is unchanged. Description: cell-based or functional assay. The source holds these as a separate data set.
For experiment [7], the target named is T4, hGDF11 homodimer (human, UniProt O95390 299-407).
T4 sequence (looked up): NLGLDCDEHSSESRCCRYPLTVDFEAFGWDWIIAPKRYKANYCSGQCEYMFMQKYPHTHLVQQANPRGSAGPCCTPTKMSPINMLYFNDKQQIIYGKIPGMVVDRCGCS
In words: cell-based or functional assay.

For experiment [8], the target named is T4, hGDF11 homodimer. Description: cell-based or functional assay. This is another data set of the same source.
Experiment [9] has as its target T1, Human GDF8 homodimer (mature human …). Description: SPR, antibody captured, 25 nM antigen. On the procedure: as §2
Experiment [10] concerns the target T4, hGDF11 homodimer. In words: SPR, antibody captured, 25 nM antigen. How it is done:
as §2

Experiment [11] concerns the target T3, B48 chimera: …. In words: Western blot of CHO.hFurin supernatant, antibody 2 µg/ml. How it is done: as §1
In experiment [12] the target is T5, B91 chimera: GDF8.1-90.BMP2.96-110.GDF8.106-109.
T5 construct: CHO.hFurin supernatant
T5 chain: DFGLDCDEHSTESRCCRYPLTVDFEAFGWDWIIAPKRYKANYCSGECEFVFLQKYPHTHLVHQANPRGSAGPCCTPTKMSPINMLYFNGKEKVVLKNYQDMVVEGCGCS
The experiment is described as above. On the procedure: as §1

The target of experiment [13] is T6, T65 chimera: GDF8.1-64.TGFβ1.69-76.GDF8.73-109 (Mus musculus (Mouse), UniProt O08689 268-376).
T6 construct: CHO.hFurin supernatant
T6 chain: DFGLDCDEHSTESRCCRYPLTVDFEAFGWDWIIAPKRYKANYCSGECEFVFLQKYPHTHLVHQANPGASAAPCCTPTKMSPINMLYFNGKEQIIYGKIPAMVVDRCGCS
The experiment is described as above. How it is done:
as §1

B1: 8D12 (antibody, V domains shown)
VH: QVQLVESGGGVVQPGRSLRLSCAASGFTFSRYGIHWVRQAPGKGLEWVAVISYDGSDEYYVDSVKGRFSISRDNSKNTLYLQMNSLRPADSAVYYCVKGDLELGFDYWGQGTLVTVSS
VL: DIVMTQAAPSIPVIPGESVSMSCRSSKSLLYSNGHTYVYWFVQRPGQSPQLLIYRMSNLASGVPDRFSGSGSGTAFTLRISRVEAEDVGVYYCMQNLEFPLTFGAGTKLELK
notes: also called antibody 8D12; 8D12 Antibody
As for B1, in experiment [1], the “IC50, luciferase bioassay, 0.5 nM GDF8” value turned out to be 3.11 nM and the “IC50, luciferase bioassay, 1 nM GDF8” value is 5.55 nM. In [2], this molecule displayed a Kd of 0.071 nM and a T1/2 of 2.32 h. In addition, the binding result in experiment [3] is “no binding (tested: 2 µg/ml)”. In experiment [4], the binding result is recorded as “no binding (tested: 2 µg/ml)”. In addition, in experiment [5], the Kd is 0.016 nM and the T1/2 came out at 14 h.

B2: 1A2 (antibody, V domains shown)
VH: EVQLLESGGGLVQPGGSLRLSCAASGFTSITYAMSWVRQAPGKGLEWVSAISVSGTNTYYADSVKGRFTISRDKSKNMLYLQMNSLRAEDTAVYYCAKDLLHNWKYGTFDIWGQGTMVTVSS
VL: EIVMTQSPATLSVSPGERATLSCRASQSVDSNLVWYQQKPGQVPRLLIYGASTRATGIPARFSGSGSGTEFTLTISSLQSEDFAVYYCQQYNKWPLTFGGGTKVEIK
notes: also called 1A2 mAb
For the molecule B2, in [6], the “IC50, GDF8-inducible luciferase, A204/Smad2 cells, 0.8 nM GDF8” value was found to be 0.8 nM. Also, the “IC50, GDF11-inducible luciferase, A204/Smad2 cells, 0.8 nM GDF11” value in the experiment with hGDF11 homodimer [7] amounted to 1400 nM. Also, in [1], the “IC50, luciferase bioassay, 0.5 nM GDF8” value turned out to be 0.196 nM. Also, the “IC50, luciferase bioassay, 1 nM GDF8” value in experiment [1] is 0.363 nM. Also, the “IC50, luciferase bioassay, 0.4 nM GDF11” value with hGDF11 homodimer [8] is approximately 600 nM. For the same molecule, the “IC50, luciferase bioassay, 0.8 nM GDF11” value with hGDF11 homodimer [8] was approximately 800 nM. For the same molecule, the results for the Kd (in experiment [9]; in the experiment with hGDF11 homodimer [10]) were 0.32 nM and 0.3 nM, respectively. Further, the figures for the T1/2 (in [9]; with hGDF11 homodimer [10]) were 1 h and 0.467 h, respectively. Further, the binding result in [11], in experiment [12] and in experiment [13] was “binds” throughout.
